{
  "source": "paper doi:10.1101/511394",
  "key": {"[1]": {"biological_target": "T1, WDR76 (FLAG-HA, HEK293 purified) (Homo sapiens, UniProt Q9H967 1-626)", "T1 sequence": "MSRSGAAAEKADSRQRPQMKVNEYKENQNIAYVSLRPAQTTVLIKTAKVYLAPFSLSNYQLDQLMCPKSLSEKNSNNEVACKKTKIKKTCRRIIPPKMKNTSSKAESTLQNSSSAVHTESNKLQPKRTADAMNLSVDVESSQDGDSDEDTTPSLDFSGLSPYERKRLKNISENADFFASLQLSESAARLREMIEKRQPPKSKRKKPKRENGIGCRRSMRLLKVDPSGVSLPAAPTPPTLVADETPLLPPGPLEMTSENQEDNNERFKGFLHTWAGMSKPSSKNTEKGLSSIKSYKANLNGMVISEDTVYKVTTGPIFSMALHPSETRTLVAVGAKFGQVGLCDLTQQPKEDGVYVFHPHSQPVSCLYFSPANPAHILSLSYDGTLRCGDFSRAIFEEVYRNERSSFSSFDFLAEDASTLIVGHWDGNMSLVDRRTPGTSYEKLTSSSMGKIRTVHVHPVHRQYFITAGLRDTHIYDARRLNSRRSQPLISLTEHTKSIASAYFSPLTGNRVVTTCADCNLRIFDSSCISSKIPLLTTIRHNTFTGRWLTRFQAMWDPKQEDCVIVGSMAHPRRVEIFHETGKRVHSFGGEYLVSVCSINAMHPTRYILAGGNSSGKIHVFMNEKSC", "assay": "EMSA"}, "[2]": {"biological_target": "T2, WDR76 (FLAG-HA, insect cell) (Homo sapiens, UniProt Q9H967 1-626)", "T2 sequence": "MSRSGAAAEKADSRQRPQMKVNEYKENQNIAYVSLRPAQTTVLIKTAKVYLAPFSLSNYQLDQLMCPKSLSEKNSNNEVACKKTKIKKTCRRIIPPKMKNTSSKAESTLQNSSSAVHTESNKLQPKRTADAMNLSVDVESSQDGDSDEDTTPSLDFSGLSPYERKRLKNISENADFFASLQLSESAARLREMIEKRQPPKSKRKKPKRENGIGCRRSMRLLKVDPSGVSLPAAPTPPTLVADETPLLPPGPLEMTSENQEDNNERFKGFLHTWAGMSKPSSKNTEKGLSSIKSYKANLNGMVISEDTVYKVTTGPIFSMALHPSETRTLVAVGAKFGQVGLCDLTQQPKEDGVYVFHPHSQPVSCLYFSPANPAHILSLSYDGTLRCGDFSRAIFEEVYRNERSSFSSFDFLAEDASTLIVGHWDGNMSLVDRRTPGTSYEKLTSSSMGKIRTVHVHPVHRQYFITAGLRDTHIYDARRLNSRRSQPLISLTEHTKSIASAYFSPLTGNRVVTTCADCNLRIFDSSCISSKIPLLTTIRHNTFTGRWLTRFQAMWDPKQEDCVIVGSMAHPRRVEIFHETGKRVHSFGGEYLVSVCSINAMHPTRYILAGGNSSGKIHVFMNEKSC", "assay": "EMSA"}, "ZHX1": {"biological_target": "T3, ZHX1 (UniProt Q9UKY1 55-830)", "T3 sequence": "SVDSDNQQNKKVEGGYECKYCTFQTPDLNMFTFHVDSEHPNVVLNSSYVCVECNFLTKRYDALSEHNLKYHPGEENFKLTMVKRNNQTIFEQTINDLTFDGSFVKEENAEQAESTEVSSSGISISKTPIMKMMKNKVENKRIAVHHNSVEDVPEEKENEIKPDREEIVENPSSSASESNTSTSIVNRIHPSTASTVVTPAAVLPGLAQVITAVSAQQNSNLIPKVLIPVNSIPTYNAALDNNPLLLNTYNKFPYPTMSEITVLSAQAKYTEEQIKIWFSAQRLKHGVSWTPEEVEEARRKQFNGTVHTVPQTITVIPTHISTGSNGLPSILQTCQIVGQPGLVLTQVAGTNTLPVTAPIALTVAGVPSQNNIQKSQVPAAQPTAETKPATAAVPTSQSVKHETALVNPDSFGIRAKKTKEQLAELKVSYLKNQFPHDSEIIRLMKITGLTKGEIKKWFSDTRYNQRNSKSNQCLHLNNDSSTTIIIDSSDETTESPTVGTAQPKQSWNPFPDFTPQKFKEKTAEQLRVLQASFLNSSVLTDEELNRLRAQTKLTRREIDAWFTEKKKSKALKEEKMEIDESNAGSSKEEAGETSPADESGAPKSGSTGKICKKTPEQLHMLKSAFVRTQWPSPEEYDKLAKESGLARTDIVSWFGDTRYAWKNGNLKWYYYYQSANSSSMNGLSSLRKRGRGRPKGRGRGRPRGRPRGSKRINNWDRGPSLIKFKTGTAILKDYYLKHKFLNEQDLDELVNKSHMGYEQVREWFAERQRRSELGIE", "assay": "EMSA"}, "[3]": {"biological_target": "T2, WDR76 (FLAG-HA, insect cell)", "assay": "EMSA", "remark": "listed apart in the source"}, "[4]": {"biological_target": "T4, C3ORF37/HMCES full-length (UniProt Q96FZ2 1-354)", "T4 sequence": "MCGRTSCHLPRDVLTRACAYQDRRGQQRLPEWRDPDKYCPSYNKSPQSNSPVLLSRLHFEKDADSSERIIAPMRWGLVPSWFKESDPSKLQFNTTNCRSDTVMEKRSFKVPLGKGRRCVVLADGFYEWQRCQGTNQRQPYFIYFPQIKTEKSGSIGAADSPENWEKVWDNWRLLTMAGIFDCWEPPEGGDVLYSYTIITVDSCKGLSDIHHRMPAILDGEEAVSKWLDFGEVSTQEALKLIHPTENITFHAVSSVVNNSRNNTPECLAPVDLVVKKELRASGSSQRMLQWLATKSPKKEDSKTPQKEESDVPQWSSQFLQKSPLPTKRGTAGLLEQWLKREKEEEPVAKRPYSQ", "assay": "filter binding"}, "WDR76 NTD": {"biological_target": "T5, WDR76 NTD (Homo sapiens, UniProt Q9H967 1-151)", "T5 sequence": "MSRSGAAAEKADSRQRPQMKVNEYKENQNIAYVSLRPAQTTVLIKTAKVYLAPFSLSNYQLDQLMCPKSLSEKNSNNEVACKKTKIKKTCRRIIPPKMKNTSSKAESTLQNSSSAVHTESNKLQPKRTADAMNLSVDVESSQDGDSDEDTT", "assay": "filter binding"}},
  "note": "Like-named read-outs stand apart in the source and are kept apart here.",
  "data": [
    {"binder": "fC/fC duplex (dsDNA, 5-formylcytosine at central CpG C8 of both strands) DNA 1: GCGGCTGCGTGGGTCC DNA 2: GGACCCACGCAGCCGC", "values": [
      {"measurement": "binding result", "setting": "[1]", "value": "no binding"},
      {"measurement": "binding result", "setting": "[2]", "value": "no binding"},
      {"measurement": "binding result", "setting": "ZHX1", "value": "no binding"}
    ]},
    {"binder": "mC/mC duplex (dsDNA, 5-methylcytosine at central CpG C8 of both strands) DNA 1: GCGGCTGCGTGGGTCC DNA 2: GGACCCACGCAGCCGC", "values": [
      {"measurement": "binding result", "setting": "ZHX1", "value": "no binding"}
    ]},
    {"binder": "hmC/hmC duplex (dsDNA, 5-hydroxymethylcytosine at central CpG C8 of both strands) DNA 1: GCGGCTGCGTGGGTCC DNA 2: GGACCCACGCAGCCGC", "values": [
      {"measurement": "binding result", "setting": "[1]", "value": "binds"},
      {"measurement": "binding result", "setting": "ZHX1", "value": "no binding"},
      {"measurement": "binding result", "setting": "[3]", "value": "binds"}
    ]},
    {"binder": "C/C duplex (dsDNA) DNA 1: GCGGCTGCGTGGGTCC DNA 2: GGACCCACGCAGCCGC", "values": [
      {"measurement": "binding result", "setting": "[4]", "value": "no binding"},
      {"measurement": "binding result", "setting": "ZHX1", "value": "no binding"}
    ]},
    {"binder": "hmC/C duplex (dsDNA, 5-hydroxymethylcytosine at central CpG of one strand (strand not stated), C on the other) DNA 1: GCGGCTGCGTGGGTCC DNA 2: GGACCCACGCAGCCGC", "values": [
      {"measurement": "binding result", "setting": "WDR76 NTD", "value": "binds"}
    ]}
  ]
}
